Assay results published in patent US20260193623A1 (METAGENOMI, published 2026).

Molecular target: the molecule itself
Test: anti-HA immunoblot of lysates of transfected HEK293T cells; band at 2x the expected size (homodimer)
Protocol: FIGS. 35A-35C depict protein expression of MG153 GII derived RTs by immunoblots. Cells were transfected with plasmids containing the candidate RTs and protein expression was evaluated by immunoblot, detecting the HA peptide fused to the N termini of the RTs. All lanes were normalized to total protein concentration. White arrows point to bands at 2× the expected molecular size of the protein, which indicate protein dimers. Lanes not relevant for the described experiment in FIGS. 35A and 35B are covered by white boxes. FIG. 35C: Multiple sequence alignment of GII derived RT. The region shown corresponds to positions 196 through 201 of the alignment. The dimerization motif CAQQ (SEQ ID NO: 2267) is highlighted.
In order to understand protein expression and stability of the GII RTs in mammalian cells, immunoblots were performed. Briefly, transfected cells were lysed with RIPA lysis buffer supplemented with protease inhibitors (80 μL per well in a 24 well format). The lysate was centrifuged at 14,000 g for 10 min at 4° C. in order to remove insoluble aggregates. Proteins were quantified using BCA. […] Proteins were detected by using a rabbit HA antibody, using an HRP-based detection method. […] The expression of each protein was quantified and cDNA synthesis activity was normalized to total protein expression: seven MG153 RTs outperformed the TGIRT control (FIG. 36).

Row | Protein | binding result
1 | MG153-4 (enzyme, Group II intron class C RT, expressed in HEK293T cells as a Flag-HA-MCP fusion (expected 67.6 kDa including the tag); not shown: N-terminal Flag-HA-MCP tag) MDTSSLMEQILSKENLNEAYLQVVRNKGAAGVDGMSVEELGPYLSENGENIREQMRTRKYKPQPVRRVEIPKPDGGVRNLGVPTVVDRFVQQAVAQVLSPIFEEQFHDHSYGFRPNRCAQQAVLKALEMMNDGHNWIVDIDLAKFFDTVDHDKLMTIFGRTIKDGDVISLVRKFLVSGVMIDDEYEDTIVGTPQGGNISPLLANIMLNELDKELEARGLDFVRYADDLIIMVGSRQAAERVMKSVTRFIENKLGLKVNAEKSRVDKPKGIKYLGFGFYFDSFAKGYKARPHMKAVEKFKEQMKKLTCRSWGVSNTYKVKKLNQLIRGWINYFKIGSMKNLCRKLDAHIRFRLRMCIWKQWKTPKNREKNLIKLGLPRYAAHGISYAKGYARVCRSWNLHISISKERLAKFGLISMEDYYAERRVTC | binds
2 | MG153-9 (enzyme, Group II intron class C RT, expressed in HEK293T cells as a Flag-HA-MCP fusion (expected 72 kDa including the tag); not shown: N-terminal Flag-HA-MCP tag) MESYLTQDRAEPEAGCGANSVSDTEGDGRTVQHDLVEEVVSWSNLEAALKQVVSNRGAPGVDGMTVDELGPWLETNYSELAEKVRNGRYRPNPVRRKEIPKPNGGVRDLGIPTVVDRLLQQAVSQVLMPIYEPSFSDTSYGFRPGRSAHDAIQKAKEYLSEGFGYVVDLDLARFFDTLNQDYLMNILRERVRDKALLELIKRFLRSGVVLPNGLLRETREGSPQGGPLSPLLSNIYLDRFDKLLESRGLRFVRYADDCLVFVRTPRAGERVRESVTRYLEGTLRLRVNQEKTVVGRADQVKFLGFRLYRQKTVGATVHDSSLARFRKEVRRITKRNRGTSLGSVLTELKTFTRGWVGYFRIGLSKSRAEKLDGWIRQRVRQYIFKQWKTLRNRASQLVSLCPDYLRPRPGFTPYSWVRECRRAAFSRSYWKAVNYPVVKRALSNSYLAGLGLYSLSEQLEKWNKGV | binds
